Drawing on the supplement of paper PMC10567573, this text covers protein stability index for 94 variants.

The chains are these.
B1: FADS1 (parent)
chain: LNFQIEHHLFPTMPRHNYHKVAPL
B2: DLC1 (parent)
chain: HVTHWMGQPFNSDDRNTACHHGLV
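Also: lentivirally expressed fusions sorted by FACS into six bins by GFP to DsRed ratio, PSI derived from sequencing read proportions per bin multiplied by bin number.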

The first data set covers variants of B1. Kind of data set: protein stability index of a GFP-peptide fusion (GPS, HEK-293T) (PSI 1-6); higher = more stable. Particulars: c terminus: a fixed tail appended.
As for HNFQIEHHLFPTMPRHNYHKVAPL [L1H], the protein stability index was found to be 2.1.

For the variant KNFQIEHHLFPTMPRHNYHKVAPL [L1K], the protein stability index amounted to 2.03.

Take VNFQIEHHLFPTMPRHNYHKVAPL [L1V]: the protein stability index was determined as 2.18.

As for DNFQIEHHLFPTMPRHNYHKVAPL [L1D], the protein stability index was 1.31.

For the variant MNFQIEHHLFPTMPRHNYHKVAPL [L1M], the protein stability index was found to be 1.63.

Turning to ANFQIEHHLFPTMPRHNYHKVAPL [L1A], the protein stability index is 1.91.

As for NNFQIEHHLFPTMPRHNYHKVAPL [L1N], the protein stability index worked out at 1.95.

In the case of GNFQIEHHLFPTMPRHNYHKVAPL [L1G], the protein stability index was determined as 2.63.

Take CNFQIEHHLFPTMPRHNYHKVAPL [L1C]: the protein stability index stood at 2.11.

Turning to QNFQIEHHLFPTMPRHNYHKVAPL [L1Q], the protein stability index came to 2.31.

WNFQIEHHLFPTMPRHNYHKVAPL [L1W]: the protein stability index was 3.02.

Regarding ENFQIEHHLFPTMPRHNYHKVAPL [L1E], the protein stability index is 2.29.

With PNFQIEHHLFPTMPRHNYHKVAPL [L1P], the protein stability index was determined as 2.26.

As for RNFQIEHHLFPTMPRHNYHKVAPL [L1R], the protein stability index amounted to 2.48.

In the case of INFQIEHHLFPTMPRHNYHKVAPL [L1I], the protein stability index is 2.2.

On to TNFQIEHHLFPTMPRHNYHKVAPL [L1T], for which the protein stability index came to 2.03.

Consider FNFQIEHHLFPTMPRHNYHKVAPL [L1F], for which the protein stability index worked out at 3.4.

On to YNFQIEHHLFPTMPRHNYHKVAPL [L1Y], for which the protein stability index was 1.93.

As for SNFQIEHHLFPTMPRHNYHKVAPL [L1S], the protein stability index was determined as 1.84.

Turning to LNHQIEHHLFPTMPRHNYHKVAPL [F3H], the protein stability index was determined as 1.83.

Take LNCQIEHHLFPTMPRHNYHKVAPL [F3C]: the protein stability index is 2.22.

LNSQIEHHLFPTMPRHNYHKVAPL [F3S]: the protein stability index was found to be 2.15.

For the variant LNEQIEHHLFPTMPRHNYHKVAPL [F3E], the protein stability index was 2.65.

Regarding LNGQIEHHLFPTMPRHNYHKVAPL [F3G], the protein stability index came to 2.42.

For the variant LNNQIEHHLFPTMPRHNYHKVAPL [F3N], the protein stability index was 2.52.

LNKQIEHHLFPTMPRHNYHKVAPL [F3K]: the protein stability index came to 1.88.

Take LNRQIEHHLFPTMPRHNYHKVAPL [F3R]: the protein stability index amounted to 1.96.

Take LNQQIEHHLFPTMPRHNYHKVAPL [F3Q]: the protein stability index amounted to 2.17.

Take LNDQIEHHLFPTMPRHNYHKVAPL [F3D]: the protein stability index worked out at 3.03.

Regarding LNPQIEHHLFPTMPRHNYHKVAPL [F3P], the protein stability index was 1.95.

Regarding LNMQIEHHLFPTMPRHNYHKVAPL [F3M], the protein stability index was 2.31.

Consider LNLQIEHHLFPTMPRHNYHKVAPL [F3L], for which the protein stability index amounted to 1.73.

With LNAQIEHHLFPTMPRHNYHKVAPL [F3A], the protein stability index amounted to 2.58.

In the case of LEFQIEHHLFPTMPRHNYHKVAPL [N2E], the protein stability index turned out to be 2.42.

As to LAFQIEHHLFPTMPRHNYHKVAPL [N2A], the protein stability index stood at 2.02.

As for LRFQIEHHLFPTMPRHNYHKVAPL [N2R], the protein stability index stood at 2.09.

Take LWFQIEHHLFPTMPRHNYHKVAPL [N2W]: the protein stability index amounted to 3.67.

As to LCFQIEHHLFPTMPRHNYHKVAPL [N2C], the protein stability index amounted to 1.98.

In the case of LHFQIEHHLFPTMPRHNYHKVAPL [N2H], the protein stability index turned out to be 2.37.

As to LPFQIEHHLFPTMPRHNYHKVAPL [N2P], the protein stability index came to 1.65.

In the case of LKFQIEHHLFPTMPRHNYHKVAPL [N2K], the protein stability index was determined as 2.28.

As for LTFQIEHHLFPTMPRHNYHKVAPL [N2T], the protein stability index amounted to 2.76.

For the variant LVFQIEHHLFPTMPRHNYHKVAPL [N2V], the protein stability index is 2.5.

In the case of LSFQIEHHLFPTMPRHNYHKVAPL [N2S], the protein stability index was determined as 1.88.

LMFQIEHHLFPTMPRHNYHKVAPL [N2M]: the protein stability index is 1.53.

For the variant LGFQIEHHLFPTMPRHNYHKVAPL [N2G], the protein stability index was 1.24.

For the variant LQFQIEHHLFPTMPRHNYHKVAPL [N2Q], the protein stability index was determined as 1.91.

For LYFQIEHHLFPTMPRHNYHKVAPL [N2Y], the protein stability index stood at 1.77.

Take LLFQIEHHLFPTMPRHNYHKVAPL [N2L]: the protein stability index amounted to 3.82.

As for LIFQIEHHLFPTMPRHNYHKVAPL [N2I], the protein stability index stood at 3.16.

As for LDFQIEHHLFPTMPRHNYHKVAPL [N2D], the protein stability index was 2.91.

Variants of B2 are the subject of another data set. Described as above. The settings on record: c terminus: a fixed tail appended.
Consider HVTHWMGQPFNSDDRNSACHHGLV [T17S], for which the protein stability index is 2.36.

As for HVTHWMGQPFNSDDRNWACHHGLV [T17W], the protein stability index stood at 1.82.

Regarding HVTHWMGQPFNSDDRNVACHHGLV [T17V], the protein stability index is 2.1.

With HVTHWMGQPFNSDDRNYACHHGLV [T17Y], the protein stability index was 1.86.

With HVTHWMGQPFNSDDRNTAKHHGLV [C19K], the protein stability index worked out at 2.2.

HVTHWMGQPFNSDDRNTAAHHGLV [C19A]: the protein stability index was 2.5.

For the variant HVTHWMGQPFNSDDRNTAHHHGLV [C19H], the protein stability index worked out at 2.13.

With HVTHWMGQPFNSDDRNTAVHHGLV [C19V], the protein stability index came to 2.04.

On to HVTHWMGQPFNSDDRNTAEHHGLV [C19E], for which the protein stability index stood at 2.92.

For the variant HVTHWMGQPFNSDDRNTAIHHGLV [C19I], the protein stability index was determined as 2.4.

Regarding HVTHWMGQPFNSDDRNTADHHGLV [C19D], the protein stability index is 2.68.

For HVTHWMGQPFNSDDRNTAFHHGLV [C19F], the protein stability index was found to be 1.25.

As to HVTHWMGQPFNSDDRNTATHHGLV [C19T], the protein stability index stood at 2.61.

With HVTHWMGQPFNSDDRNTAPHHGLV [C19P], the protein stability index was determined as 2.43.

Turning to HVTHWMGQPFNSDDRNTAGHHGLV [C19G], the protein stability index is 1.96.

Turning to HVTHWMGQPFNSDDRNTAQHHGLV [C19Q], the protein stability index is 2.61.

Consider HVTHWMGQPFNSDDRNTAMHHGLV [C19M], for which the protein stability index is 2.31.

HVTHWMGQPFNSDDRNTAYHHGLV [C19Y]: the protein stability index was 1.8.

Turning to HVTHWMGQPFNSDDRNTAWHHGLV [C19W], the protein stability index is 1.48.

In the case of HVTHWMGQPFNSDDRNTASHHGLV [C19S], the protein stability index was found to be 2.41.

For the variant HVTHWMGQPFNSDDRNTARHHGLV [C19R], the protein stability index came to 2.4.

Regarding HVTHWMGQPFNSDDRNTANHHGLV [C19N], the protein stability index was found to be 2.43.

Take HVTHWMGQPFNSDDRNTALHHGLV [C19L]: the protein stability index is 2.02.

On to HVTHWMGQPFNSDDRNTCCHHGLV [A18C], for which the protein stability index was 1.83.

Consider HVTHWMGQPFNSDDRNTICHHGLV [A18I], for which the protein stability index stood at 1.76.

Consider HVTHWMGQPFNSDDRNTMCHHGLV [A18M], for which the protein stability index was found to be 2.11.

Regarding HVTHWMGQPFNSDDRNTFCHHGLV [A18F], the protein stability index worked out at 2.24.

Consider HVTHWMGQPFNSDDRNTQCHHGLV [A18Q], for which the protein stability index was determined as 2.47.

As for HVTHWMGQPFNSDDRNTSCHHGLV [A18S], the protein stability index was found to be 2.21.

Consider HVTHWMGQPFNSDDRNTECHHGLV [A18E], for which the protein stability index amounted to 2.53.

Turning to HVTHWMGQPFNSDDRNTHCHHGLV [A18H], the protein stability index is 2.25.

As to HVTHWMGQPFNSDDRNTLCHHGLV [A18L], the protein stability index worked out at 1.56.

Turning to HVTHWMGQPFNSDDRNTGCHHGLV [A18G], the protein stability index came out at 2.06.

As for HVTHWMGQPFNSDDRNTPCHHGLV [A18P], the protein stability index is 1.94.

For the variant HVTHWMGQPFNSDDRNTKCHHGLV [A18K], the protein stability index is 1.94.

As for HVTHWMGQPFNSDDRNTVCHHGLV [A18V], the protein stability index came to 2.33.

Regarding HVTHWMGQPFNSDDRNTWCHHGLV [A18W], the protein stability index worked out at 1.88.

Regarding HVTHWMGQPFNSDDRNTTCHHGLV [A18T], the protein stability index was 2.09.

Take HVTHWMGQPFNSDDRNTYCHHGLV [A18Y]: the protein stability index was 2.37.

For the variant HVTHWMGQPFNSDDRNTRCHHGLV [A18R], the protein stability index turned out to be 2.

In the case of HVTHWMGQPFNSDDRNTNCHHGLV [A18N], the protein stability index came out at 2.44.

For the variant HVTHWMGQPFNSDDRNTDCHHGLV [A18D], the protein stability index came out at 2.69.

For HVTHWMGQPFNSDDRNTACHHQLV [G22Q], the protein stability index is 2.1.
